# Measured values from patent US20050090643A1.
# Target: viral envelope glycoprotein gp120 of human immunodeficiency virus (HIV-1) (HIV-1)
# Assay: cell-based or functional assay
Binder,IC50 in quantitative vaccinia virus-based HIV-1 fusion assay,average KD from non-linear least squares best fitting of HIV-1 fusion assay titration data to a two-independent site model
dimeric wild-type CVN (protein) LGKFSQTCYNSAIQGSVLTSTCERTNGGYNTSSIDLNSVIENVDGSLKWQPSNFIETCRNTQLAGSSELAAECKTRAQQFVSTKINLDDHIANIDGTLKYE,9 nM,21 nM
monomeric wild-type CVN (protein) LGKFSQTCYNSAIQGSVLTSTCERTNGGYNTSSIDLNSVIENVDGSLKWQPSNFIETCRNTQLAGSSELAAECKTRAQQFVSTKINLDDHIANIDGTLKYE,32 nM,67 nM
"CVN Gln50 deletion mutant (ΔQ50-CVN), obligate domain-swapped dimer of cyanovirin (protein) LGKFSQTCYNSAIQGSVLTSTCERTNGGYNTSSIDLNSVIENVDGSLKWPSNFIETCRNTQLAGSSELAAECKTRAQQFVSTKINLDDHIANIDGTLKYE",9 nM,22 nM
